Laboratory results: patent US20260201034A1 (published 2026)

Biological target: T1, HER2 Y772dupYVMA peptide on HLA-A*02:01 (human)
T1 peptide: VMAYVMAGV
Assay: multimer staining

binding result: recognises
B1: HER2 (Y772dupYVMA)/HLA-A*02:01-specific TCR (TCR, V domains shown)
Valpha: AQTVTQSQPEMSVQEAETVTLSCTYDTSESDYYLFWYKQPPSRQMILVIRQEAYKQQNATENRFSVNFQKAAKSFSLKISDSQLGDAAMYFCAYWSVPGGSYIPTFGRGTSLIVHP
Vbeta: EAQVTQNPRYLITVTGKKLTVTCSQNMNHEYMSWYRQDPGLGLRQIYYSMNVEVTDKGDVPEGYKVSRKEKRNFPLILESPSPNQTSLYFCASSLRPGTSIPGELFFGEGSRLTVL
